# pIC50, pKd: −log10 of the molar value.
# Key:
# [1] = target: recombinant 601-positioned nucleosome core particle (X. laevis histones, 147-bp 601 DNA) (x. laevis); experiment: native gel or EMSA; 50 nM recombinant nucleosomes with varying SIRT6 protein; 10 mM Tris, 50 mM NaCl, 0.5 mM TCEP, 6% glycerol, pH 7.4, on ice >15 min; SYBR Safe; apparent KD, shifted complexes together as bound fraction, ligand-depleted (quadratic) fit
# [2] = tested on: SIRT6(TQ3); experiment: FRET; conditions: EMSA: 10 mM Tris, 50 mM NaCl (100 mM for DNA), 0.5 mM TCEP, 6% glycerol, pH 7.4, on ice, 50 nM NCP, FRET: 50 mM Tris, pH 7.5, 1 nM …
# [3] = tested on: SIRT6(270-355) CTD; experiment: EMSA; conditions: EMSA: 10 mM Tris, 50 mM NaCl (100 mM for DNA), 0.5 mM TCEP, 6% glycerol, pH 7.4, on ice, 50 nM NCP, FRET: 50 mM Tris, pH 7.5, 1 nM …
# [4] = target: recombinant 601-positioned nucleosome core particle (X. laevis histones, 147-bp 601 DNA) (x. laevis); experiment: FRET or BRET; 1 nM Cy3-labeled nucleosomes titrated with SIRT6^(TQ3) in solution; 50 mM Tris, 50 mM NaCl, 0.5 mM TCEP, pH 7.5; KD(High) fitted from 0-5 nM (ligand-depleted), KD(Low) from 5-500 nM (specific binding)
# [5] = target: recombinant 601-positioned nucleosome core particle (X. laevis histones, 147-bp 601 DNA) (x. laevis); experiment: native gel or EMSA; TAMRA-labeled SIRT6 with NCP; TAMRA and SYBR Safe fluorescence scanned in the same gel, TAMRA signal normalized to DNA content; gel blotted for histone H3
# [6] = target: NCP with the high affinity site saturated with full-length SIRT6 (1:1 SIRT6:NCP complex) (x. laevis | not stated) (UniProt Q8N6T7); experiment: native gel or EMSA; high affinity site on NCPs saturated with 10 nM full-length SIRT6, then increasing SIRT6^(1–292); fraction bound from the loss of free nucleosomes
# [7] = target: recombinant 601-positioned nucleosome core particle (X. laevis histones, 147-bp 601 DNA) (x. laevis); experiment: native gel or EMSA
# [8] = target: recombinant 601-positioned nucleosome core particle (X. laevis histones, 147-bp 601 DNA) (x. laevis); experiment: native gel or EMSA; competition: SIRT6:NCP complexes pre-formed with 100 nM SIRT6, then competed with LANA peptide (300 nM to 100 µM); IC50 from percent inhibition
# [9] = tested on: LANA peptide (Kaposi's sarcoma-associated herpesvirus); experiment: competition EMSA; conditions: EMSA: 10 mM Tris, 50 mM NaCl (100 mM for DNA), 0.5 mM TCEP, 6% glycerol, pH 7.4, on ice, 50 nM NCP, FRET: 50 mM Tris, pH 7.5, 1 nM …
# [10] = tested on: SIRT6; experiment: EMSA; conditions: apparent, both complexes as bound, 50 nM NCP, EMSA: 10 mM Tris, 50 mM NaCl (100 mM for DNA), 0.5 mM TCEP, 6% glycerol, pH 7.4, on ice, FRET: 50 mM Tris, pH 7.5, 1 nM …
# [11] = tested on: SIRT6 27R mutant; experiment: EMSA; conditions: apparent, n=1, EMSA: 10 mM Tris, 50 mM NaCl (100 mM for DNA), 0.5 mM TCEP, 6% glycerol, pH 7.4, on ice, 50 nM NCP, FRET: 50 mM Tris, pH 7.5, 1 nM …
# [12] = tested on: SIRT6(AAA); experiment: EMSA; conditions: EMSA: 10 mM Tris, 50 mM NaCl (100 mM for DNA), 0.5 mM TCEP, 6% glycerol, pH 7.4, on ice, 50 nM NCP, FRET: 50 mM Tris, pH 7.5, 1 nM …
# [13] = tested on: SIRT6(1-301); experiment: EMSA; conditions: 139 nM in text, EMSA: 10 mM Tris, 50 mM NaCl (100 mM for DNA), 0.5 mM TCEP, 6% glycerol, pH 7.4, on ice, 50 nM NCP, FRET: 50 mM Tris, pH 7.5, 1 nM …
# [14] = tested on: SIRT6 25N mutant; experiment: EMSA; conditions: apparent, n=1, EMSA: 10 mM Tris, 50 mM NaCl (100 mM for DNA), 0.5 mM TCEP, 6% glycerol, pH 7.4, on ice, 50 nM NCP, FRET: 50 mM Tris, pH 7.5, 1 nM …
# [15] = tested on: SIRT6(1-292); experiment: EMSA; conditions: EMSA: 10 mM Tris, 50 mM NaCl (100 mM for DNA), 0.5 mM TCEP, 6% glycerol, pH 7.4, on ice, 50 nM NCP, FRET: 50 mM Tris, pH 7.5, 1 nM …
# [16] = tested on: LANA peptide (Kaposi's sarcoma-associated herpesvirus); experiment: competition EMSA; conditions: EMSA: 10 mM Tris, 50 mM NaCl (100 mM for DNA), 0.5 mM TCEP, 6% glycerol, pH 7.4, on ice, 50 nM NCP, FRET: 50 mM Tris, pH 7.5, 1 nM …; remark: listed apart in the source
# [17] = target: nucleosome core particle with four alanine mutations at the H2A acidic patch (x. laevis); experiment: native gel or EMSA; 50 nM recombinant nucleosomes with varying SIRT6 protein; 10 mM Tris, 50 mM NaCl, 0.5 mM TCEP, 6% glycerol, pH 7.4, on ice >15 min; SYBR Safe; apparent KD, shifted complexes together as bound fraction, ligand-depleted (quadratic) fit
# Latency Associated Nuclear Antigen (LANA) peptide from Kaposi’s sarcoma-associated herpesvirus, sequence (Q9QR71 1-23): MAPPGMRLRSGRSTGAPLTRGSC
substance,measurement,setting,value
"SIRT6 with alanine substitutions at S45, N206 and N208 (from UniProt Q8N6T7 2-355) (enzyme)",pKd,[1],7.01
NCP(Cy3),pKd,[2]; high-affinity site,9.34
same,pKd,[2]; low-affinity site,7.52
SIRT6 residues 1–301 (C-terminal truncation) (from UniProt Q8N6T7 1-301) (domain or fragment),pKd,[1],6.85
same,stoichiometry N,[1],2
601 DNA (147 bp),pKd,"[3]; 100 mM NaCl, 50 nM DNA",6.35
SIRT6 labeled with Tide Quencher 3 (TQ3) at cysteine 18 (from UniProt Q8N6T7 2-355) (enzyme),"KD(High), high affinity site",[4],0.00046 µM
same,"KD(Low), low affinity site",[4],0.03 µM
SIRT6 C-terminal domain (residues 270–355) (from UniProt Q8N6T7 270-355) (domain or fragment),pKd,[1],6.40
SIRT6 labeled with tetramethylrhodamine (TAMRA) at cysteine 320 (from UniProt Q8N6T7 2-355) (enzyme),stoichiometry N,[5],2
SIRT6 residues 1–292 (C-terminal truncation) (from UniProt Q8N6T7 1-292) (domain or fragment),"KD(Low), low affinity site",[6],0.04 µM
same,pKd,[1],6.60
same,stoichiometry N,[1],2
Latency Associated Nuclear Antigen (LANA) peptide from Kaposi’s sarcoma-associated herpesvirus,pIC50,[7],5.21
same,pIC50,[8],5.02
"NCP (601, 147 bp)",pIC50,[9],5.21
same,pKd,[10],7.89
same,pKd,[3],6.40
same,pKd,[11],7.85
same,pKd,[12],7.01
same,pKd,[13],6.85
same,pKd,[14],7.85
same,pKd,[15]; 254 nM in text,6.60
same,pKd,[15],7.40
same,pIC50,[16],5.02
"SIRT6 (full-length, His-tagged) (from UniProt Q8N6T7 1-355) (enzyme)",pKd,[1],7.89
same,pKd,[17],6.85

# Source: publication PMC7568541
